Measurements reported in paper doi:10.1101/2023.11.21.568018 (bioRxiv, 2023).
Substitutions are numbered along the chain they refer to. In names and notes the source's numbering stands. Each block holds one binder with its values, some of them ahead of it.

Target: phospho-NEDD8 (human (cDNA from HEK393T cells), UniProt Q15843 1-76, phosphoserine at 65)
Assay: crystal structure

binding result: binds
B1: human Parkin R0RBR (141-465) (domain or fragment)
chain: SIYNSFYVYCKGPCQRVQPGKLRVQCSTCRQATLTLTQGPSCWDDVLIPNRMSGECQSPHCPGTSAEFFFKCGAHPTSDKETSVALHLIATNSRNITCITCTDVRSPVLVFQCNSRHVICLDCFHLYCVTRLNDRQFVHDPQLGYSLPCVAGCPNSLIKELHHFRILGEEQYNRYQQYGAEECVLQMGGVLCPRPGCGAGLLPEPDQRKVTCEGGNGLGCGFAFCRECKEAYHEGECSAVFEASGTTTQAYRVDERAAEQARWEAASKETIKKTTKPCPRCHVPVEKNGGCMHMKCPQPQCRLEWCWNCGCEWNRVCMGDHWFDV

binding result: binds
B2: human Parkin R0RBR K211N (141-465) (domain or fragment)
chain: B1 chain with K71N
